# Results reported in the nanobody polyreactivity screen of Harvey et al. (2022).
# Assay: yeast display, Sf9 membrane polyspecificity reagent, FACS + sequencing; frameworks hold sequencing errors
# Summary of the method: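 In a synthetic yeast display library (Saccharomyces cerevisiae BJ5465), nanobody expression was induced with galactose for 36–48 hours. FACS gates were set low and high (top ~1%) using anti-HA fluorescence for expression and streptavidin fluorescence for binding of the Sf9 membrane reagent. Each polyreactivity label is drawn from the gate of origin.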
row,Sequence,polyreactivity (PSR sort gate)
1,QVQLVESGGGLVHAGGSLRLSCAASGRIFERYAMGWYRQAPGKERELVAAISVSGSGTYYADSVKGRFTISRDNAKNTVYLQMNSLKPEDTAVYYCAADASLLGLFQGYDYWGQGTQVTVSS,low polyreactivity
2,QVQLVESGGGLVQAGGSLRLSCAASGRTFLWNDMGWYRQAPGKERELVAAITGSDGTYADSVKGRFTISRDNAKNTVYLQMNSLKPEDTAVYYCAAETYGYFPWKYDYWGQGTQVTVSS,low polyreactivity
3,QVQLVESGGGLVQAGGSLRLSCAASGSTFANNAMGWYRQAPGKERELVAAISWSGGSTYYADSVKGRFTISRDNAKNTVYLQMNSLKPEDTAVYYCAADSPRYGGYGYWGQGTKVTVSS,low polyreactivity
4,QVQLVESGGGLVQAGGSLRLSCAASGRTFGSYAMGWYRQAPGKERELVAAISKGGGSTYYADSVKGRFTISRDNAKNTVYLQMNSLKPEDTAVYYCAKRRFEYYYYWGQGTQVTVSS,high polyreactivity
5,QVQLVESGGGLVQAGGSLRLSCAAARYAMGWYRPAPGKERELVAAISKSGGSTYYADSVKGRFTISRDNAKNTVYLQMNSLIPEDTAVYYCAARGHAGRGEYYYWGQGTQVTVSS,high polyreactivity
6,QDQLVETVGVLDKAGGSLRLSCAASGRTFAIYAMAWYRQAPGKEREFVAASSWSGGDSYYADSVKGRFTISRDNAKNSVYLQMNSLKPEHTAVYYCAARDNDYEGRYLQYDLDYWGQGTQVTVST,low polyreactivity
7,QVQLVESGGGLVQAGGSLRLSCAASGSTSRQYAMGWYRQAPGKERELVAAITWSGASTNYADSVKGRFTISRDNAKNTVYLQMNSLKREDTAVYYCAAYRWVYPDVIYDYWGQGTQVTVSS,high polyreactivity
8,QVQLVESGGGLVQAGGSLRLSCAASGRTFWFNAMGWYRQAPGKARELVAAISGITGSTYYADSVKGRITISRDNAKNTVYLQMNSLKPEATAVYYCATNRRGTWDYDYWGQGTQVTVSS,low polyreactivity
9,QVQLVESGGGLVQAGGSLRISCAASGRTFGANAMGWYRQAPGKERELVASISRSGGTTYYADSVKGRFTISRDNAKNTVYLQMNSLKPEDTAVYYCAAQYVRYGHYYWGQGTQVTVSS,high polyreactivity
10,QDQLVESGGGLVQAGGSLRLSCAASGFTFACYTMGWYRQAPGKERELVAGIDWSGGSTYYADSVKGRFTISRDNEKNTVYLEMNSLKPEDTAVYYCNAAVLYYVYPGYDYWGQGTQVTVSS,high polyreactivity
11,QVQLVESGGGLVQAGGSLRLSCAASGSTFSSYAMGWYRQAPGKERELVAAISTSGGRTYYADSVKGRFTISRDNAKNTVYLQMNSLKPEDTAVYYCAKKGIGYVRYYYWGQGTQVTVSS,high polyreactivity
12,QVQLVESGGGLVQAGGSLRLSCAASGIFVRYAMGWYRQAPGKEREMVAAISFSDDSTYYADSVKGRFTISRDNAKNTVYLQMNSLKPEDTAVYYCNARLERTPCLYLYGSWGQVTQVTVSS,low polyreactivity
13,QVQLVESGGGLVQAGGSLRLSCAASGFIFRKYTMGWYRQAPGKERELVATIDSSGGSTYYADSVKGRFTISRDNAKNTVYLQMNSLKPEDTAVYYCNADLRELSPWYWYSGEMDYWGQGTQVTVSS,low polyreactivity
14,QVQLVESGGGLVQAGGSLRLSCAASGRIFYIIAMVWYRQAPGKEWELVASITGSGGRTYYADSVKGRFTISRDNAKNTVYLQMNSLKPEDTAVYYCNADLYVGYLYYLYDYWGQGTQVTVSS,low polyreactivity
15,QVQLVESGGGLVQAGGSLRLSCAASGGIFLYYAMGWYSQAPGKVRELVAAISSRGGSTYYAHSVKGRYTISRDNAKNTVYLQMNSLKPEDTAVYYCAAESGYYRRTGIFYSWGQGTHVTVSS,high polyreactivity
16,QVQLVESGGGLVQAGGSLRLSCAASGFTSYRYAMGWYRQAPGKERELVAAISSSGRTDYADSVKGRFTISRDNAKNSVYLQMNSLKPEDTAVYYCAARTYSYVGRYKFDYWGQGTQVTVSS,high polyreactivity

row,Sequence,polyreactivity (PSR sort gate)
1,QVQLVESGGGLVQAGGSLRLSSAASGLTFAYYTMGWYRQAPGKERELVAAISRSGSGTYYADSVKGRFTISRDNAKNTVYLQMNSLKPEDTAVYYCATRYYLKFLDGYNYWGQGTQVTVSS,high polyreactivity
2,QVQLVESGGGLVQAGGSLRLSCAASGFIFSAYSMGWYRPEPGKERELVAAISYSGGTTYYADSVKGRFTISRDNAKNTLYLQMNSLKPEDTAVYYCAAGVGYWGQGTQVTVSS,high polyreactivity
3,QVQLVESGGGLVQAGGSLRLSCAASGSNFGYYPMGWYRQATGKERELVAAISWSDGSTYYADSVKGRFTISRDNAKNTVYLQMNSRKPEDTAVYYCAARFTPYITSDDGHYDYWGQGTQVTVSS,low polyreactivity
4,QVQLVESGGGLVQAGGSLRLSCAASGGIFSVYGMGWYRQAPGKERELVAVIRRGGSTYYADSVKGRFTISRDNAKNTVYLQMNSLKPEDTAVYYCATDYPGYFVDGNYYWGQGTQVTVSS,low polyreactivity
5,QVQLVESGGALVQAGGSLRLSCAASGSIFSEYAMGWYRQAPGKERELVAAISRSGGTTYYADSVKGRFSISRDNAKNTVYLQMNSLKPEDTAVYYCAARYFRGSYPMGYWGQGTQVTVSS,high polyreactivity
6,QVQLVESGGGLVQAGGSLRLTCAASGYIFGIYAMGWYRQAPGKERELVAAITTSSGSTYADSVKGRFTISRDNAKNTVYLQMNSLKPEDTAVYYCAADGYLYSYPGHRRASYDYWGQGTQVTVSS,low polyreactivity
7,QVQLVESGGGLVQAGGSLRLSCAASGSIFPYNAMGWYRQPPGKERELVATISSGGSTNYADSVKGRFTISRDNAKNTVYLQMNSLKPEDTAVFYCAADVIVFYYAPNYWGDIEYGYWGQGTQVTVSS,low polyreactivity
8,QVQLVESGGGLVQAGGSLRLSCAAYGLTFGYYVMGSYRQAPGKERELVADINFSGGSTYYADSVKGRFTISRDNAKNTVYLHMNSLKTEDTAVYYCNAVVYRFTVSSGYESWGEGTQVTVSS,low polyreactivity
9,QVQLVESGGGLVQAGGSLRLSCAASGSTLYYYAMGWYRQAPGKERELVATITNGGSTNYADSVKGRFTISRYNAKNTVYLQMNSLKPEDTAVYYCNARRGYWGSNYWGEGTQVTVSS,high polyreactivity
10,QVQLVESGGGLVQAGGSLRLSCAASGSTFDYYAMGWYRQAPGKERELVAAISSGGSTNYADSVKGRFTISRDNAKNTVYLQMNSLKPEDTAVYYCAAVALWDYKFFYYLLYDYWGQGTQVTVSS,low polyreactivity
11,QVQLVESGGGIVQAGGSLRLSCAASGIIFSWYAMGWYRQAPGKERELVAAISKGGGSTYYADSVKGRFTISRDNAKNTVYLQMNSLKPEDTAVYYCAAASSYGYGYWGQGTQVTVSS,high polyreactivity
12,QVQLVESGGGLVQAGGSLRLSCAASGSIFRSYAMGWYRQAPGKERELVAAISRRGGSTYYADSVKGRFTISRDNAKNTVYLQMNSLKPADTAVYYCAADRTGPYDYWGQGTQVTVSS,high polyreactivity
13,QVQLVESGGGLVQAGGSLRLSCAASGITIVLYAMGWYRQAPGQERQLVAAINIDGNTNYADSVKGRFTISRDNAKNTVYLQMNSLKPEDTAVYYCAATFVPAQSRYTGSKYDYWGQGTQVTVSS,low polyreactivity
14,QVQLVESGGGLVQAGGSLRLSCAASGSIFVRNAMGWYRQAPGKERELVAAITATGGRTYYADSVKGRFTISRDNAKNTVYLQMNSLKPEDTAVYYCAAYYPRSGYDYWGQGTQVTVSS,high polyreactivity
15,QVQLVESGGGLVQAGGSLRLICAASGRIFATYTMGWYRQAPGKERELVAAISRNGGSTYYADSVKGRFTISRDYAKNTVYLQMNSLKTEDTAVYYCNAERRDDRGFDYWGQGTQVTVSS,low polyreactivity
16,QVQLVESGGGLVQAGGSLRLSCAASGFTFRYYAMGWYRQAPGKEREWVAGISSRGGSTYYADSVKGRFTISRDNAKNTVYLQMNSLKPEDSAVYYCATERFLLGLGYDYWGQGTQVTVSS,high polyreactivity
